This passage reports amyloid nucleation score results from the supplement of paper PMC12042874.

± gives the uncertainty stated by the source.

The data set can be described thus: amyloid nucleation score (Sup35N fusion, yeast selection) (log enrichment); library NNK1; higher = more nucleation; inactive = no reads after selection. In a few lines:
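Sup35N fusions to peptides of 20 random codons were expressed in psi-negative yeast, induced 24 hours with 100 μM copper sulfate, and grown 7 days at 30°C on medium lacking adenine and uracil. Input and output plasmid inserts were sequenced by Illumina. The nucleation score is the DiMSum log enrichment of output over input reads, centred on the mode score of non-aggregating sequences. Sequences with under 100 input reads were excluded.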
Substance ESHSSTKGSEWLRHSHSDGV displayed an amyloid nucleation score of 0.632 ± 0.39.
The value for ESLSCKFLCVYCCL was “inactive”; that for ESVLWVFYV was 0.1 ± 0.41; that for ETACLYLLFMSKACMRMMNS was -0.219 ± 1.1.
Then ETALVVLTRVTEGCGRGQKT, with 0.668 ± 0.77; and EVCCNVKTL, with 0.431 ± 0.28; and EVCWNSCMVADSVSVISNPA, with -0.231 ± 0.27.
The value for EVFRRSLGTTDAVGPKHDAQ was 2.39 ± 0.17; that for EVIIIGRSIIVLGMGGTKFW was 1.72 ± 0.24; that for EVRRFMTPGENESSREVAYF was -0.02 ± 0.45.
EVRSQSNEYHLRNWCVYK registered an amyloid nucleation score of 1.31 ± 0.23.
Substance EVSLLSFLE displayed an amyloid nucleation score of 0.68 ± 0.39.
The value for EYGDDVLWMFSTILCVRGEW was -0.626 ± 0.47.
Then EYGNGSIKPVGRHWLEGYLH, with -0.701 ± 1; and FADERIGYSIK, with -0.336 ± 0.44.
As to FALGCF, the amyloid nucleation score was -0.079 ± 0.36.
Then FASDRLYWTWK, with 0.255 ± 0.53.
Then FASRVCMRSNQKIPAWQLWS, with -0.359 ± 0.29; and FAVLHNMMFMKYVRLFLVVT, with 0.247 ± 0.45.
The value for FAYFSVNCL was “inactive”.
In turn, FCELELMVHVVMPFKAVS gave an amyloid nucleation score of 0.831 ± 0.77.
The value for FCFMWGYMVRVIV was “inactive”.
Then FCFMYDGHEAWSKAFSRRNV, with 0.196 ± 0.3; and FCHYTVLYDSPTLLVRVTWA, with -0.681 ± 0.85.
The value for FCNLYGKQTYLSGFGIHCVV was 0.127 ± 0.23; that for FDDCFSLLIVPDSTVITKEQ was 0.444 ± 0.4.
Substance FDFACCTTGIGPFSCDLGSG had an amyloid nucleation score of 7.694 ± 0.052.
Then FDFCVEIWLRVFLNMWGRLR, with 0.689 ± 0.33.
Then FDGVRARDALFSGCL, with -0.705 ± 0.59; and FDKFKNSTVREFMWVEFSVG, with 0.745 ± 0.74; and FDKSRVDRLSDKGRCCCVL, with 1.36 ± 0.69.
In the case of FDLGHCIDSRRPGLCVMVLV, the amyloid nucleation score stood at 0.035 ± 0.34.
Then FDRMNCALGVPLWDALKDGS, with 3.4 ± 0.14.
Then FDYPDGDVVVNKFDSDVCYR, with 0.616 ± 0.84.
As for FEGALRLTIRSQKD, the amyloid nucleation score came to 0.574 ± 0.57.
As for FEGNQDIYMVRTWKDKMRLV, the amyloid nucleation score is -0.107 ± 0.45.
The substance FEHVSMWIVCFVKNLKYRIR registered an amyloid nucleation score of -0.86 ± 0.86.
The value for FELICNRNGNSPRYAFKKIP was 0.976 ± 0.35; that for FESRDVRSLWWDWSYSNKTV was 0.191 ± 0.28; that for FEVNFPAYIYWSDCPVVGVS was -0.127 ± 0.38.
The value for FFELSVYH was -0.174 ± 0.65.
The value for FFFHSKDVYYGDFVHLSFAG was -0.352 ± 1.2; that for FFGCFGLYYAMAHLLYPSLE was 1.48 ± 0.8; that for FFLSLARVGVILHPMMVLTG was -0.35 ± 0.64.
With FFLWGRW, the amyloid nucleation score is -0.341 ± 0.43.
Regarding FFPTEYHALENLLHADVRVK, the amyloid nucleation score was -0.682 ± 0.36.
The value for FFRRNHGYNI was 0.092 ± 0.43; that for FFRTLTWR was 1.11 ± 0.55; that for FFTLHAFQ was “inactive”.
For the substance FFTRGIVMQRRQHWNGVYGS, the amyloid nucleation score amounted to 0.737 ± 0.49.
The value for FFVLFEVYMVWFTEGFARLA was -0.733 ± 0.57; that for FFVLKGECVGGLMPWTRVTA was -0.24 ± 0.92; that for FGESPH was 0.494 ± 0.74.
The value for FGKGNEGTIGNI was -0.22 ± 0.76; that for FGKSYRRFFARTKFGKAGGP was -1.29 ± 1.8.
Then FGLCCRSRVFWRWLIKDWKD, with -0.566 ± 1.9; and FGMLIAVRSR, with 0.315 ± 0.29; and FGMWYSVRISTSLVYVMGVL, with -0.23 ± 0.28.
Take FGRSVLDRVKVMHVRVVVSV: the amyloid nucleation score is -0.372 ± 0.63.
The value for FGSRVVGRCVETSHSILFVL was 0.58 ± 1.1; that for FGSSMLDFNLDFDKWCE was 3.66 ± 0.076; that for FGTFCMGRPYRYYGCNGGFR was 0.674 ± 0.35.
The value for FGTLGK was 1.88 ± 0.38; that for FGYNILYINQSTWLLNFCQV was 6.56 ± 0.049; that for FHCGMGIF was -0.197 ± 0.32.
The value for FHCTNSMVMLGRHATMLFFY was 5.92 ± 0.095.
For FHIQEANIFRE, the amyloid nucleation score was -0.17 ± 0.24.
The substance FHLVRGCIFITCKYVGRGIV registered an amyloid nucleation score of 1.32 ± 0.57.
The value for FHMENALISLGCSSGLRQMA was 0.803 ± 0.54.
The value for FHMPYLCNAKWRECLGFSAH was 0.279 ± 1.4; that for FHTLDVCPGRVLNLYNVKVW was -0.427 ± 1; that for FHVIGSARTLVVAQYLK was “inactive”.
Then FHWVGVSYQLKMRRVKPKGV, with -0.441 ± 1.1; and FIFHSIGRSKISYKS, with -0.229 ± 0.59; and FIFPAHCSLRSIDFSQGYIR, with -0.321 ± 0.36.
FIIEQANGQGYNYLHI returned an amyloid nucleation score of -0.481 ± 0.48.
Then FIIVEECNFRNRRLTYRLFI, with 0.816 ± 0.49; and FILIYTAPFIGGLVGLGDGH, with “inactive”.
FISCCARIFTTCGIAD: the amyloid nucleation score is 1.19 ± 0.14.
As to FIWDAWLGRKVSESHTVFHS, the amyloid nucleation score was determined as 0.017 ± 0.21.
Regarding FIYFYGRYNSSGDPFQVFLG, the amyloid nucleation score is -0.578 ± 0.34.
The value for FKLWQVFRKSSMFQRGWGIG was 0.462 ± 0.78; that for FKPEKRLGATG was 0.694 ± 0.45.
Then FKRRLGCLKPRNY, with -0.333 ± 0.52.
The value for FKRSLRCLYVVACNALYWDA was -0.026 ± 0.51; that for FKSTPVFKQWRNGGTDGLTG was -0.958 ± 1.5; that for FKSYWGSTWRSNSWVGDMRG was -0.225 ± 0.46.
Turning to FKYTHIETVIQVLYFRTWSY, the amyloid nucleation score was -0.485 ± 0.33.
Then FLCPRSCHGPNTFDFIMWSF, with 0.198 ± 0.66.
The value for FLCSIISYS was 5.572 ± 0.048; that for FLEKSFLCSWSLVRTEGEWA was -0.333 ± 0.57.
The value for FLGMIFTELSINMKVSRRP was -1.12 ± 1.2; that for FLHFMVY was 0.027 ± 0.64; that for FLIIIRPISRRTCRVCFKQT was -0.246 ± 0.44.
For the substance FLLESL, the amyloid nucleation score result is “inactive”.
The value for FLLIVVCWDLRLSSFHKLYF was 0.657 ± 0.73; that for FLMWMWLVSNRKHWLFTDKV was -2.54 ± 2.7; that for FLNNLAGWGYPCFTGVYANA was -0.195 ± 0.39.
The value for FLNRYICKFDKVSQHGVRLW was 0.261 ± 0.84; that for FLQRIKNHAVSAGWIYSLSK was 0.106 ± 0.43.
As for FLRELMRCIGASSTFLGVEK, the amyloid nucleation score is -0.204 ± 0.29.
Then FLRFIRSVNFYVKEYAESLL, with -0.691 ± 0.52; and FLSLFVSVV, with -0.18 ± 0.97.
